Here are results for two substances from PMC7575552.

For the assay, the target named is Hsp70 (385–641) (UniProt P0DMV8). In words: ITC; TA Instruments NanoITC, 25 °C, stir speed 600 rpm; 350 µM WT or S20E CHIP titrated into 50 µM Hsp70 (385–641), twenty-four 2 µL injections; triplicate.
UniProt P0DMV8, sequence (P0DMV8 385-641): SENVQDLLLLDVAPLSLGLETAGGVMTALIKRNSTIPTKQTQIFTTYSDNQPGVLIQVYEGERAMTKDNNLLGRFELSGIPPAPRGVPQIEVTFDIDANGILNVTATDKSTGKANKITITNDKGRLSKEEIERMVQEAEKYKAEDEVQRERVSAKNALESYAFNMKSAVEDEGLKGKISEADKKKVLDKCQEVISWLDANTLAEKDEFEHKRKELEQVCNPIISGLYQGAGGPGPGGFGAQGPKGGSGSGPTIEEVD

In turn, “Recombinant human CHIP S20E (phosphomimetic) (from UniProt Q9UNE7 1-303) (natural protein)” had a dH of -7.67 kcal/mol.

Regarding “Recombinant human CHIP wild type (from UniProt Q9UNE7 1-303) (natural protein)”, the dH is -6.31 kcal/mol.
